In patent US20240269194A1 (CITY OF HOPE, published 2024):

Target: [^68Ga]-DO3A-VS-Cys40-labeled Exendin-4 (UniProt P26349 48-86)
Experiment: saturation binding of the radiolabeled probe on INS-1 cells

B1: GLP-1R expressed by INS-1 cells (receptor)
chain: GPRPQGATVSLSETVQKWREYRHQCQRFLTEAPLLATGLFCNRTFDDYACWPDGPPGSFVNVSCPWYLPWASSVLQGHVYRFCTAEGIWLHKDNSSLPWRDLSECEESKQGERNSPEEQLLSLYIIYTVGYALSFSALVIASAILVSFRHLHCTRNYIHLNLFASFILRALSVFIKDAALKWMYSTAAQQHQWDGLLSYQDSLGCRLVFLLMQYCVAANYYWLLVEGVYLYTLLAFSVFSEQRIFKLYLSIGWGVPLLFVIPWGIVKYLYEDEGCWTRNSNMNYWLIIRLPILFAIGVNFLVFIRVICIVIAKLKANLMCKTDIKCRLAKSTLTLIPLLGTHEVIFAFVMDEHARGTLRFVKLFTELSFTSFQGFMVAVLYCFVNNEVQMEFRKSWERWRLERLNIQRDSSMKPLKCPTSSVSSGATVGSSVYAATCQNSCS
notes: whole, on cells; Endogenous receptor on INS-1 cells and INS-1 tumors in mice; also called GLP-R1
Kd: 8.6 nM
